Laboratory results published in the supplement of paper PMC9233669.
This sample holds only a part of the variants without activity.

Experiments:
[1] = test system: biotinyl-Met-oxazolone; test: self-aminoacylation, catalytic enhancement (BMO) (fold over background); higher = more active; k-Seq, kA / k0A0; sequences stand for … in GGGAAUGGAUCCACAUCUACGAAUUC…UUCACUGCAGACUUGACGAAGCUG
Summary of the method: (§1)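 Mutagenized RNA pools (0.43 μM; 21-nt variable region) were treated with 2–1250 μM of each biotinyl-aminoacyl-oxazolone. Conditions were 50 μL HEPES/NaCl/KCl/MgCl2/CaCl2 buffer, 5% acetonitrile, pH 6.9–7.0, room temperature, 90 minutes. Catalytic enhancement, the median kA relative to the uncatalyzed rate, was derived from streptavidin capture, qPCR and Illumina sequencing.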

[2] = test system: biotinyl-Val-oxazolone; test: self-aminoacylation, catalytic enhancement (BVO) (fold over background); higher = more active; k-Seq, kA / k0A0; sequences stand for … in GGGAAUGGAUCCACAUCUACGAAUUC…UUCACUGCAGACUUGACGAAGCUG
Summary of the method: as §1

[3] = test system: biotinyl-Phe-oxazolone; test: self-aminoacylation, catalytic enhancement (BFO) (fold over background); higher = more active; k-Seq, kA / k0A0; sequences stand for … in GGGAAUGGAUCCACAUCUACGAAUUC…UUCACUGCAGACUUGACGAAGCUG
Summary of the method: as §1

[4] = test system: biotinyl-Leu-oxazolone; test: self-aminoacylation, catalytic enhancement (BLO) (fold over background); higher = more active; k-Seq, kA / k0A0; sequences stand for … in GGGAAUGGAUCCACAUCUACGAAUUC…UUCACUGCAGACUUGACGAAGCUG
Summary of the method: as §1

[5] = test system: biotinyl-Trp-oxazolone; test: self-aminoacylation, catalytic enhancement (BWO) (fold over background); higher = more active; k-Seq, kA / k0A0; sequences stand for … in GGGAAUGGAUCCACAUCUACGAAUUC…UUCACUGCAGACUUGACGAAGCUG
Summary of the method: as §1

[6] = test system: biotinyl-Ile-oxazolone; test: self-aminoacylation, catalytic enhancement (BIO) (fold over background); higher = more active; k-Seq, kA / k0A0; sequences stand for … in GGGAAUGGAUCCACAUCUACGAAUUC…UUCACUGCAGACUUGACGAAGCUG
Summary of the method: as §1

| Sequence | self-aminoacylation [1] | self-aminoacylation [2] | self-aminoacylation [3] | self-aminoacylation [4] | self-aminoacylation [5] | self-aminoacylation [6] |
| --- | --- | --- | --- | --- | --- | --- |
| CUGCAUCAAACAAUCGGUCUG [Fam1A.1 aminoacylation ribozyme variant] | 1.13 | 1.05 | 10.1 | 1.18 | 7.51 | 1.08 |
| CUGCUUCAAACAAUCGGGCUG [Fam1A.1 aminoacylation ribozyme variant] | 2.66 | 2.33 | 38.7 | 3.18 | 36.1 | 2.2 |
| CUGCUUCAAGCAAUCGGUCUG [Fam1A.1 aminoacylation ribozyme variant] | 2.13 | 1.49 | 132 | 2.96 | 42.8 | 1.29 |
| CUGCUUUAAACAAUCGGUCUG [Fam1A.1 aminoacylation ribozyme variant] | 0.879 | 0.79 | 2 | 0.754 | 1.87 | 0.889 |
| CUUACCCUGGACAUCGAGUGA [Fam2.1 aminoacylation ribozyme variant] | 5.08 | 3.18 | 11.5 | 5.46 | 5.06 | 2.78 |
| CUUACCCUGGUCAUAGAGUGA [Fam2.1 aminoacylation ribozyme variant] | 6.37 | 2.83 | 24.2 | 5.85 | 7.46 | 2.86 |
| CUUACCCUGGUCAUCGAGUAA [Fam2.1 aminoacylation ribozyme variant] | 4.58 | 2.8 | 8.84 | 4.25 | 3.51 | 2.03 |
| CUUACCCUGGUCAUCGAGUCA [Fam2.1 aminoacylation ribozyme variant] | 0.897 | 1.07 | 0.627 | 0.705 | 0.547 | 0.742 |
| CUUACCCUGGUCAUCGAGUGA [Fam2.1 aminoacylation ribozyme variant] | 25.3 | 11 | 85.8 | 23.1 | 26.1 | 9.83 |
| CUUACCCUGGUCAUCGAGUUA [Fam2.1 aminoacylation ribozyme variant] | 2.5 | 1.73 | 4.79 | 2.36 | 2.08 | 1.53 |
| CUUACCCUGGUCUUCGAGUGA [Fam2.1 aminoacylation ribozyme variant] | 3.87 | 2.64 | 17.9 | 4.29 | 5 | 2.29 |
| CUUACCCUGGUGAUCGAGUGA [Fam2.1 aminoacylation ribozyme variant] | 4.51 | 2.81 | 14.5 | 4.36 | 5.52 | 2.65 |
| CUUACCCUGUUCAUCGAGUGA [Fam2.1 aminoacylation ribozyme variant] | 4.32 | 2.86 | 7.83 | 4.33 | 6.94 | 2.29 |
| CUUAUUCAAACAAUCGGUCUG [Fam1A.1 aminoacylation ribozyme variant] | 0.713 | 0.688 | 7.03 | 0.679 | 3.34 | 0.702 |
| CUUCACCAAGGUCAUCGGGUG [Fam2.2 aminoacylation ribozyme variant] | 8.17 | 5.4 | 59.9 | 9.25 | 7.64 | 4.21 |
| CUUCACCGAGGUCAUCGGGUG [Fam2.2 aminoacylation ribozyme variant] | 6.2 | 4.68 | 59.7 | 7.45 | 5.44 | 3.01 |
| CUUCACCUAGGUAAUCGGGUG [Fam2.2 aminoacylation ribozyme variant] | 2.65 | 1.65 | 1.56 | 2.68 | 2.7 | 1.59 |
| CUUCACCUAGGUCAUCGGAUG [Fam2.2 aminoacylation ribozyme variant] | 0.842 | 1.18 | 1 | 0.891 | 0.921 | 1.06 |
| CUUCACCUAGGUCAUCGUGUG [Fam2.2 aminoacylation ribozyme variant] | 1.6 | 1.26 | 3.33 | 1.39 | 1.12 | 1.21 |
| CUUCACCUAGGUCCUCGGGUG [Fam2.2 aminoacylation ribozyme variant] | 6.74 | 4.26 | 34.1 | 7.45 | 6.69 | 3.4 |
| CUUCACCUGGGUCAUCGGGUG [Fam2.2 aminoacylation ribozyme variant] | 4.02 | 5 | 25 | 4.82 | 4.89 | 2.43 |
| CUUCACUUAGGUCAUCGGGUG [Fam2.2 aminoacylation ribozyme variant] | 4.3 | 2.8 | 23.4 | 5.55 | 5.12 | 2.82 |
| CUUCUACAAACAAUCGGUCUG [Fam1A.1 aminoacylation ribozyme variant] | 0.763 | 0.831 | 0.956 | 0.623 | 0.564 | 0.694 |
| CUUCUGCAAACAAUCGGUCUG [Fam1A.1 aminoacylation ribozyme variant] | 0.85 | 0.889 | 1.52 | 0.795 | 0.919 | 0.957 |
| CUUCUUCAAACAAGCGGUCUG [Fam1A.1 aminoacylation ribozyme variant] | 0.925 | 0.958 | 0.813 | 1.04 | 0.713 | 1.09 |
| CUUCUUCAAACAAUCCGUCUG [Fam1A.1 aminoacylation ribozyme variant] | 0.623 | 0.901 | 1.17 | 0.923 | 0.964 | 0.85 |

| Sequence | self-aminoacylation [1] | self-aminoacylation [2] | self-aminoacylation [3] | self-aminoacylation [4] | self-aminoacylation [5] | self-aminoacylation [6] |
| --- | --- | --- | --- | --- | --- | --- |
| CUUCUUCAAACAAUCGGUAUG [Fam1A.1 aminoacylation ribozyme variant] | 0.647 | 0.66 | 9.62 | 0.779 | 4.71 | 0.784 |
| CUUCUUCAAACAAUCGGUCAG [Fam1A.1 aminoacylation ribozyme variant] | 0.655 | 0.734 | 5.5 | 0.623 | 2.59 | 0.818 |
| CUUCUUCAAACAAUCGGUCUG [Fam1A.1 aminoacylation ribozyme variant] | 0.996 | 0.902 | 35.5 | 1.41 | 17.6 | 0.898 |
| CUUCUUCAAACAGUCGGUCUG [Fam1A.1 aminoacylation ribozyme variant] | 0.821 | 0.771 | 0.711 | 0.803 | 0.848 | 0.697 |
| CUUCUUCAAGCAAUCGGUCUG [Fam1A.1 aminoacylation ribozyme variant] | 0.909 | 0.944 | 3.14 | 0.978 | 2.18 | 0.745 |
| CUUCUUCACACAAUCGGUCUG [Fam1A.1 aminoacylation ribozyme variant] | 0.749 | 0.782 | 0.889 | 0.775 | 0.81 | 0.714 |
| CUUCUUCAGACAAUCGGUCUG [Fam1A.1 aminoacylation ribozyme variant] | 0.651 | 0.751 | 0.958 | 0.606 | 0.559 | 0.76 |
| GAGAUUGCUAAUAGUCGCAAG [Fam3.1 aminoacylation ribozyme variant] | 1.67 | 1.98 | 1.8 | 1.52 | 2.94 | 1.88 |
| GAGUAUGCUAAUAGUCGCAAG [Fam3.1 aminoacylation ribozyme variant] | 1.49 | 1.61 | 6.5 | 1.45 | 4.13 | 1.91 |
| GAGUUUGCUAACAGUCGCAAG [Fam3.1 aminoacylation ribozyme variant] | 1.62 | 1.41 | 10.7 | 1.3 | 5.6 | 1.4 |
| GAGUUUGCUAAUAGGCGCAAG [Fam3.1 aminoacylation ribozyme variant] | 0.961 | 0.836 | 1.4 | 1.02 | 1.35 | 0.982 |
| GAGUUUGCUAAUAGUCACAAG [Fam3.1 aminoacylation ribozyme variant] | 1.62 | 1.48 | 11.7 | 1.36 | 4.25 | 1.84 |
| GAGUUUGCUAAUAGUCGGAAG [Fam3.1 aminoacylation ribozyme variant] | 1.6 | 1.38 | 11.6 | 1.16 | 4.68 | 1.38 |
| GCACACCUCAAGCAAUCGGUC [Fam1B.1 aminoacylation ribozyme variant] | 1.3 | 1.73 | 2.09 | 1.23 | 2.46 | 1.4 |
| GCACACUUCAAGCAAUCGGCC [Fam1B.1 aminoacylation ribozyme variant] | 2.99 | 3.45 | 4.88 | 3.49 | 6.96 | 3.36 |
| GCACACUUCAAGCACUCGGUC [Fam1B.1 aminoacylation ribozyme variant] | 2.44 | 2.25 | 4.05 | 1.94 | 3.42 | 2.02 |
| GCACACUUCAAUCAAUCGGUC [Fam1B.1 aminoacylation ribozyme variant] | 1.58 | 1.69 | 34.4 | 1.98 | 26.4 | 1.73 |
| GCACACUUCACGCAAUCGGUC [Fam1B.1 aminoacylation ribozyme variant] | 2 | 2.22 | 10.1 | 1.93 | 3.02 | 2.5 |
| GCACACUUCAGGCAAUCGGUC [Fam1B.1 aminoacylation ribozyme variant] | 2.04 | 2.42 | 3.06 | 1.67 | 2.39 | 2.21 |
| GCACCCUUCAAGCAAUCGGUC [Fam1B.1 aminoacylation ribozyme variant] | 1.22 | 1.47 | 4.04 | 1.45 | 4.63 | 1.32 |
| GCGCACUUCAAGCAAUCGGUC [Fam1B.1 aminoacylation ribozyme variant] | 2.04 | 2.2 | 41.1 | 2.65 | 29.6 | 2.12 |
| GCGUUUGCUAAUAGUCGCAAG [Fam3.1 aminoacylation ribozyme variant] | 2.34 | 2.05 | 4.9 | 2.65 | 4.24 | 2.09 |
| GGACACUUCAAGCAAUCGGUC [Fam1B.1 aminoacylation ribozyme variant] | 2.13 | 2.29 | 26.7 | 2.4 | 22.5 | 2.38 |
| GUACACCUAGGUCAUCGGGUG [Fam2.2 aminoacylation ribozyme variant] | 2.32 | 2.53 | 18.5 | 2.69 | 4.08 | 2.54 |
| GUACUUCAAACAAUCGGUGUG [Fam1A.1 aminoacylation ribozyme variant] | 2.77 | 1.97 | 10.4 | 3.35 | 10.2 | 2.12 |
